Measurements: patent publication US20210324080A1 (JIANGSU HUAIYU PHARMACEUTICAL, published 2021)
Where a chain is given by its changes, count along the chain named.

Columns and labels:
[1] = target: T1, CTLA-4 on human T lymphocytes (PBMC, CD3+ T cells) (human, UniProt P16410 36-223); assay: cell-based or functional assay
T1 sequence (looked up): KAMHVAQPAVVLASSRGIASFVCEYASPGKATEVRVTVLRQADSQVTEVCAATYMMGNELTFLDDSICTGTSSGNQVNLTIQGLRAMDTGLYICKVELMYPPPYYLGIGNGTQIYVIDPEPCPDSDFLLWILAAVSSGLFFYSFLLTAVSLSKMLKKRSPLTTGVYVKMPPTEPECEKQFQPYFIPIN

[2] = target: T2, human CTLA-4 (Y201V), full length, on transfected cells (human, UniProt P16410 36-223); assay: FACS, human CTLA-4 expressing cells
T2 construct: whole, on cells; also called hCTLA-4; HEK293-hCTLA-4 (Y201V)
T2 sequence (looked up): T1 sequence (looked up) with Y166V

[3] = target: T3, monkey CTLA-4, full length, on transfected HEK293 cells (monkey); assay: FACS, monkey CTLA-4 expressing cells
T3 construct: whole, on cells; also called cCTLA-4; HEK293-cCTLA-4
Description: The pIRES plasmid with the monkey-derived CTLA-4 full-length gene was transfected into the HEK293 cell line to construct a HEK293 stable cell line containing monkey CTLA-4 (herein referred to as HEK293-cCTLA-4 stable cell line), wherein the database accession number of the monkey CTLA-4 nucleotide sequence is XM_005574014.1. The HEK293-hCTLA-4 stable cell line and HEK293-cCTLA-4 stable cell line were expanded in a T-75 cell culture flask to a 90% confluence. The medium was aspirated, and the cells were washed with HBSS buffer (Hanks Balanced Salt Solution, purchased from Invitrogen) twice, then treated with an enzyme-free cell dissociation fluid (Versene solution, purchased from Life technology) and the cells were collected. The cells were washed with HBSS buffer twice. After counted, the cells were diluted with HBSS buffer to 2×10⁶ cells per ml, added with 1% goat serum blocking solution, wherein the percentage was the mass percantage. Cells were incubated on ice for 30 minutes, then washed twice with HBSS buffer by centrifugation. The collected cells were suspended in the FACS buffer (HBSS containing 1% BSA, wherein the percentage was the mass percantage) to 2×10⁶ cells/ml, added as 100 microliters per well to a 96-well FACS reaction plate, added with 100 microliters per well of the purified CTLA-4 antibody sample to be tested, incubated on ice for 2 hours. The plate was washed twice with the FACS buffer by centrifugation, added with 100 microliters of fluorescent (Alexa 488)-labeled secondary antibodies (purchased from Invitrogen) per well, and incubated on ice for 1 hour. The plate was washed 3 times with FACS buffer by centrifugation, added with 100 μl fixative solution [4% (v/v) Paraformaldehyde] per well to suspend the cells. 10 minutes later, it was washed 2 times with FACS buffer by centrifugation. The cells were suspended with 100 microliters of FACS buffer, FACS (FACS Calibur, purchased from BD) was used for detection and the results were analyzed.

[4] = target: T4, CTLA-4-hFc (immunogen A; hFc-labeled CTLA-4 extracellular domain protein) (human, UniProt P16410 36-161); assay: blocking assay, CTLA-4 protein, competitor B7.2
T4 construct: range 36-161; Made in HEK293 cells, purified on protein A; also called CLTA-4-hFc; CTLA-4 protein; not shown: human IgG Fc fragment (hFc) of the pCpC vector
T4 sequence (looked up): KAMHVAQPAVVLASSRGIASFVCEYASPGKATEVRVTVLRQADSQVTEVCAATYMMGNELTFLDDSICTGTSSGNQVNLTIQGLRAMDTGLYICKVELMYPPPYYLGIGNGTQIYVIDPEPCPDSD
Protocol: CTLA-4 extracellular domain protein (CTLA-4-hFc) was diluted with PBS to a final concentration of 1.0 μg/mL, and then added to a 96-well ELISA plate as 100 μl per well. The plate was covered with a plastic film and incubated overnight at 4° C. The plate was washed twice with plate washing solution [PBS containing 0.01% (v/v) Tween 20] on the next day, and added with blocking solution [PBS containing 0.01% (v/v) Tween 20 and 1% (w/w) BSA] and blocked at room temperature for 2 hours. […] After 2 hours, the plate was washed 3 times with a plate washing solution [PBS containing 0.01% (v/v) Tween 20]. HRP (horseradish peroxidase) labeled avidin diluent (purchased from Sigma) was added 100 microliters per well, and after the plate was incubated for 2 hours at 37° C., it was washed with plate washing solution [PBS containing 0.01% (v/v) Tween 20] for 3 times. […] TMB substrate was added to each well. After incubated at room temperature for 30 minutes, the plate was added with […] stop solution (1.0N HCl) to each well. An ELISA plate reader (SpectraMax 384plus, Molecular Device) was used to read the A450 nm value.

[5] = target: T5, recombinant His-labeled hCTLA-4 ECD protein (human, UniProt P16410 36-161); assay: SPR Biacore T200, antibody captured by anti-human Fc, 1:1 model
T5 construct: extracellular domain; also called human CTLA-4 ECD; not shown: His label
T5 sequence (looked up): T4 sequence (looked up)
Protocol: Anti-human Fc IgG was fixed on flow cell 1 and 2. HBS-EP+ (10 mmol/L HEPES, 150 mmol/L NaCl, 3 mM EDTA, 0.05% P20, pH 7.4) was used as the running buffer, and anti-human Fc IgG was fixed using the fixing wizard template. The flow cells 1 and 2 connected in series with S CM5 sensor chip were activated with freshly mixed 50 mmol/L NHS and 200 mmol/L EDC. Anti-human Fc IgG was diluted to […] with 10 mmol/L NaAC (pH 4.5) and injected into activated flow cells 1 and 2. The remaining active coupling sites were blocked with 1 mol/L ethanolamine.
The recombinant His-labeled hCTLA-4 ECD protein was diluted to 50 nmol/L, and then serially diluted 4 times with HBS-EP+ buffer at a 2-fold ratio. […] Each antibody was injected into the CM5 sensor flow cell 2 at a flow rate of 10 μL/min to achieve a response of 230 RU. Then the prepared His-labeled hCTLA-4ECD protein was injected into flow cells 1 and 2 at a flow rate of 30 μL/min for 180 seconds. The buffer flow was maintained for 400 seconds for dissociation measurement (30 μL/min). To remove the tested antibody from the surface, 10 mmol/L glycine-HCl pH1.5 was injected for 20 seconds (30 μL/min). Flow cell 1 was used as a reference flow cell. The above steps were repeated for each concentration of serially diluted His-labeled CTLA-4ECD protein. The KD value of each antibody was evaluated using Biacore T200 evaluation software 1.0, and a 1:1 binding model was used to fit the data.

IL-2 secretion, pg/ml, at 0.13 ug/ml, N = 1 [1]: 1570 pg/mL
IL-2 secretion, pg/ml, at 0.13 ug/ml, N = 2 [1]: 1450 pg/mL
IL-2 secretion, pg/ml, at 0.37 ug/ml, N = 1 [1]: 2480 pg/mL
IL-2 secretion, pg/ml, at 0.37 ug/ml, N = 2 [1]: 1860 pg/mL
IL-2 secretion, pg/ml, at 1.1 ug/ml, N = 1 [1]: 3460 pg/mL
IL-2 secretion, pg/ml, at 1.1 ug/ml, N = 2 [1]: 2560 pg/mL
IL-2 secretion, pg/ml, at 3.3 ug/ml, N = 1 [1]: 4240 pg/mL
IL-2 secretion, pg/ml, at 3.3 ug/ml, N = 2 [1]: 4200 pg/mL
IL-2 secretion, pg/ml, at 10 ug/ml, N = 1 [1]: 6650 pg/mL
IL-2 secretion, pg/ml, at 10 ug/ml, N = 2 [1]: 5210 pg/mL
IL-2 secretion, pg/ml, at 30 ug/ml, N = 1 [1]: 7650 pg/mL
IL-2 secretion, pg/ml, at 30 ug/ml, N = 2 [1]: 8210 pg/mL
MFI at 0.000128 nM [2]: 3
MFI at 0.0128 nM [2]: 31
MFI at 0.064 nM [2]: 85
MFI at 0.32 nM [2]: 229
MFI at 1.6 nM [2]: 491
MFI at 8 nM [2]: 727
MFI at 40 nM [2]: 902
MFI at 200 nM [2]: 886
MFI at 0.000128 nM [3]: 2
MFI at 0.0128 nM [3]: 36
MFI at 0.064 nM [3]: 97
MFI at 0.32 nM [3]: 270
MFI at 1.6 nM [3]: 504
MFI at 8 nM [3]: 757
MFI at 40 nM [3]: 810
MFI at 200 nM [3]: 784
% Block at 0.000128 nM [4]: 0%
% Block at 0.0128 nM [4]: 26.3%
% Block at 0.064 nM [4]: 42.8%
% Block at 0.32 nM [4]: 82.3%
% Block at 1.6 nM [4]: 98.7%
% Block at 8 nM [4]: 99%
% Block at 40 nM [4]: 99%
% Block at 200 nM [4]: 99.1%
Kd [5]: 3.5 nM
koff [5]: 0.00151 s⁻¹
kon [5]: 431000 M⁻¹ s⁻¹
B1: 97B8E1 fully human CTLA-4 antibody (human IgG1, kappa) (antibody, V domains shown)
VH: QVQLVESGGGVVQPGRSLRLSCAASGFTFSSYVMHWVRQAPGKGLEWVAVIWSDGRNKYYTDSVKGRFTISRDNSKNTLYLQMSSLRAEDTAVYYCARSGIALAGNAFDIWGQGTMVTVSS
VL: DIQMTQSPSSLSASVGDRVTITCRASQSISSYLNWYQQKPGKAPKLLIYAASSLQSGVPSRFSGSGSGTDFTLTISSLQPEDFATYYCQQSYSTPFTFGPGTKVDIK
notes: also called mAb50; mAb050
